PMC5760668, “Structure function and engineering of multifunctional non-heme iron dependent oxygenases in fungal meroterpenoid biosynthesis” (Nature Communications, 2018)

Assays:
AusE-(6P-A298) = target: T1, AusE-(6P-A298) (Aspergillus nidulans, UniProt Q5AR34); assay: X-ray crystal structure; format: binding; conditions: Mn(II), anaerobic; co-substrate
T1 construct: crystal construct, N-terminal truncated 6P-A298 in pET28a, E. coli, EDTA-treated, Mn(II) reconstituted; homodimer
T1 sequence (Q5AR34 6-298): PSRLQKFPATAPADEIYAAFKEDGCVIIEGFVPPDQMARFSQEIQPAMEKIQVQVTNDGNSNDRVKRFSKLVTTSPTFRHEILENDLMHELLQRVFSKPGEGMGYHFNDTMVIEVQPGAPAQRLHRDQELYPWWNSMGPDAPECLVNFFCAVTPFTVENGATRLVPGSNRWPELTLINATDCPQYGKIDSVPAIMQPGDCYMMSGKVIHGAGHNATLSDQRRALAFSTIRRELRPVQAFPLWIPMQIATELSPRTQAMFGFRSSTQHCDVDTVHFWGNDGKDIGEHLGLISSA

[1] = target: T2, PrhA-(6P-A298), N-terminal truncated and C-terminal chimeric PrhA (Penicillium brasilianum, UniProt A0A1E1FFL0, E295I/A296S/P297S/S298A); assay: X-ray crystal structure; format: binding; conditions: Fe(II); crystal soaked with αKG; co-substrate, bidentate chelation
T2 construct: crystal construct PrhA-(6P-A298): residues from Pro6, C-terminal Glu295-Val301 replaced by AusE Ile295-Ser296-Ser297-Ala298, in pET28a, EDTA-treated; homodimer; Asp276′ of the other chain contacts substrate
T2 sequence (A0A1E1FFL0 6-298 E295I/A296S/P297S/S298A): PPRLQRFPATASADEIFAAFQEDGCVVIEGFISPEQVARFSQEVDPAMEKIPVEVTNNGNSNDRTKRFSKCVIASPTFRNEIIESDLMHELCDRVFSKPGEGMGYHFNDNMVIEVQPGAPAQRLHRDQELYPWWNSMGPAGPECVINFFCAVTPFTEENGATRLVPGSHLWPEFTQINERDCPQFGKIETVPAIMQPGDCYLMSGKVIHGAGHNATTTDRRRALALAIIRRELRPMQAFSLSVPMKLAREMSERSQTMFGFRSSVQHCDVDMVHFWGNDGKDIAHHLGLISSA

[2] = target: the molecule itself; assay: crystal structure; anaerobic vapor diffusion at 20 °C; AusE with MnCl2 (and αKG); PrhA and mutants crystallised as apo form and soaked with FeSO4, αKG and substrate; homodimer in the crystal
[3] = target: the molecule itself; assay: dynamic light scattering; purified enzymes; monomodal distribution, polydispersity 18.2 and 21.1%; predicted masses compared with the calculated 35.1 kDa

O=C(O)CCC(=O)C(=O)O [α-ketoglutarate]
X-ray crystal structure (AusE-(6P-A298)): X-ray crystal structures of AusE complexed with Mn(II) and αKG (AusE-Mn/αKG)
X-ray crystal structure [1]: in complex with Fe(II) and αKG (PrhA-Fe/αKG)

B1: N-terminal truncated AusE-(6P-A298) (enzyme, Aspergillus nidulans, UniProt Q5AR34 6-298, looked up)
chain: T1 sequence (Q5AR34 6-298)
notes: AusE, Fe(II)/αKG-dependent oxygenase of austinol biosynthesis, Aspergillus nidulans; residues P6-A298, cloned NdeI/BamHI into pET28a; Crystallised with Mn(II), and with Mn(II) and αKG; also called AusE-Mn; AusE-Mn/αKG; source: E. coli Rosetta 2(DE3)pLysS, purified (HisTrap HP, HiTrap Q HP, EDTA treatment, Superdex 200)
stoichiometry N [2]: 2

B2: wild-type PrhA (PrhA-(M1-V301)) (enzyme, Penicillium brasilianum, UniProt A0A1E1FFL0 1-301, looked up)
chain: MAPMIPPRLQRFPATASADEIFAAFQEDGCVVIEGFISPEQVARFSQEVDPAMEKIPVEVTNNGNSNDRTKRFSKCVIASPTFRNEIIESDLMHELCDRVFSKPGEGMGYHFNDNMVIEVQPGAPAQRLHRDQELYPWWNSMGPAGPECVINFFCAVTPFTEENGATRLVPGSHLWPEFTQINERDCPQFGKIETVPAIMQPGDCYLMSGKVIHGAGHNATTTDRRRALALAIIRRELRPMQAFSLSVPMKLAREMSERSQTMFGFRSSVQHCDVDMVHFWGNDGKDIAHHLGLEAPSVHV
notes: PrhA, Fe(II)/αKG-dependent oxygenase, Penicillium brasilianum; It may have been the chimeric 6-298 crystallisation construct; also called recombinant PrhA; source: E. coli Rosetta 2(DE3)pLysS, purified (HisTrap HP, HiTrap Q HP, Superdex 200)
stoichiometry N [3]: 2

B3: wild-type AusE (AusE-(M1-A298)) (enzyme, Aspergillus nidulans, UniProt Q5AR34 1-298, looked up)
chain: MGSATPSRLQKFPATAPADEIYAAFKEDGCVIIEGFVPPDQMARFSQEIQPAMEKIQVQVTNDGNSNDRVKRFSKLVTTSPTFRHEILENDLMHELLQRVFSKPGEGMGYHFNDTMVIEVQPGAPAQRLHRDQELYPWWNSMGPDAPECLVNFFCAVTPFTVENGATRLVPGSNRWPELTLINATDCPQYGKIDSVPAIMQPGDCYMMSGKVIHGAGHNATLSDQRRALAFSTIRRELRPVQAFPLWIPMQIATELSPRTQAMFGFRSSTQHCDVDTVHFWGNDGKDIGEHLGLISSA
notes: AusE, Fe(II)/αKG-dependent oxygenase, Aspergillus nidulans; It may have been the 6-298 crystallisation construct; also called recombinant AusE; source: E. coli Rosetta 2(DE3)pLysS, purified (HisTrap HP, HiTrap Q HP, Superdex 200)
stoichiometry N [3]: 2

B4: N-terminal truncated and C-terminal chimeric PrhA-(6P-A298) (enzyme)
chain: T2 sequence (A0A1E1FFL0 6-298 E295I/A296S/P297S/S298A)
notes: PrhA, Fe(II)/αKG-dependent oxygenase of paraherquonin biosynthesis, Penicillium brasilianum; from P6 up to the residue before Glu295 (Glu295-Val301 were replaced); AusE, Aspergillus nidulans, residues Ile295-Ser296-Ser297-Ala298, put in place of PrhA Glu295-Val301; Crystallised as apo form; Fe(II), αKG and preaustinoid A1 (5) were soaked in; also called PrhA-Fe; PrhA-Fe/αKG; source: E. coli …
stoichiometry N [2]: 2
